The target in this test is SgcC5 (unlabelled) (Streptomyces globisporus). Nature of the test: SEC. Background: Size exclusion chromatography separates by hydrodynamic size, large species first.

As usually defined, the stoichiometry N is a count of units in the complex or per binding partner. SgcC5 (unlabelled) (enzyme) came in with a stoichiometry N of 2.

Values taken from article PMC6219380.
